The series addresses RAD51 (Homo sapiens, UniProt Q06609 Q06609:2-339). Nature of the series: FP; 0.2 uM RAD51, 2.22 nM ssDNA, 2 mM ATP, 10 mM MgCl2, 30 mM NaCl, pH 7.5, 37 C; binding used to measure compound effects, no Kd given. The settings on record: tags: human RAD51, purified as previously described (source inferred); label: 5'-Alexa488. Here is the method:
In each well, RAD51 protein was combined with reaction buffer and varying concentrations of compound in DMSO in an initial volume of 40 μl and incubated at 37° C. for 40 minutes. […] The final reaction contained 4% DMSO, 0.2 μM RAD51, 30 mM NaCl, 2% glycerol, and 2.22 nM ssDNA substrate.

The values that follow come from patent publication US20190083491, “SMALL MOLECULES INHIBITORS OF RAD51” (The University of Chicago, published 2019).

RAD51, sequence (Q06609 2-339, one chain of several): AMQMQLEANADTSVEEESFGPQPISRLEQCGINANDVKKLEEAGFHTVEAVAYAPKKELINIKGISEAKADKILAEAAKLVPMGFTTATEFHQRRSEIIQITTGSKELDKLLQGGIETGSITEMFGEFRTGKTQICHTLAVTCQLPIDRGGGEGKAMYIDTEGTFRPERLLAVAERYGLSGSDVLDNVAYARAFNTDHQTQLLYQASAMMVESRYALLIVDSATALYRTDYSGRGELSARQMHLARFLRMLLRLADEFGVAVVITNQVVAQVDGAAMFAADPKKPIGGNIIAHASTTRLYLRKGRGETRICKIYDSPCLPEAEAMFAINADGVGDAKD

B1: Alexa488-oligo-dT45 (ssDNA)
DNA: TTTTTTTTTTTTTTTTTTTTTTTTTTTTTTTTTTTTTTTTTTTTT
B1: the binding result is “binds”.
